Substrate: O=C(O)CO
Assay: purified protein
Conditions: co-substrate O2; recombinant His-tagged enzyme

B1: CmGOX (Cyanidioschyzon merolae strain 10D) (protein)
chain: MVEKPAVNPATQPLNLAEYHLFAKARLPAMVYGYYASGADDEQTLRDNEEAFRRLRFRPRVLIDVSRVDITKQVMGIDLSFPLMVAPTAMQRMAHPEGELATARAVARIGTVMGLSSWATTSLEDVAAHVPGLPKFFQLYVYKDRAITERLVRRAERAGFRAIALTVDTPQLGRREADIRNQFQLPPHLSLANFADMKDFAQVKGGAGASGLASYVASLIDASLNWNDIAWLKSITRLPILLKGVVTAEDAQRALQYGADGIWISNHGARQLDGVTATIDCLEEVAQSVRGRIPVFIDSGVRRGTDVVKALALGADAVLIGRPIVWGLAVDGEEGVYRLLSLLKDEFKLAMQLCGCQKVSDIRRDLVVRDAFAPYDVRQMLSVKMQSKL
In the case of B1, the Km is reported as 900 ± 200 µM.

Reference: article PMC4867895
